“Also recorded” adds a separate entry of the source. Like-named read-outs stand apart in the source and are kept apart here.
Experiments:
yeast Hsp90 = system: yeast Hsp90; set-up: method as in 2 sources, ref [41] = [41]; PMID 12504007; doi:10.1016/s1097-2765(02)00785-2; 41 Panaretou B , Siligardi G , Meyer P , Maloney A , Sullivan JK , Singh S , et al Activation of the ATPase activity of hsp90 by the stress-regulated cochaperone aha1 . Mol Cell . 2002; 10 ( 6 ): 130 ||| ref [42] = [42]; PMID 9927435; doi:10.1093/emboj/18.3.754; 42 Prodromou C , Siligardi G , O'Brien R , Woolfson DN , Regan L , Panaretou B , et al Regulation of Hsp90 ATPase activity by tetratricopeptide repeat (TPR)-domain co-chaperones . Embo J . 1999; 18; details: cited from earlier work
FKBP^92-207 = assay: Isothermal titration calorimetry (ITC), binding to the immunophilin domain alone; details: full-length Hsp90β, 20 mM Tris, 300 mM NaCl, 1mM EDTA pH 7.5, 700 to 800 μM FKBP^92-207 injected into 50 μM Hsp90β
Source text: (§1) FKBP8 (FKBP^1-380) was cloned as an NdeI-HindIII fragment representing amino acids 1–380 and lacking the C-terminal trans-membrane helix into pDMXV4 with a non-cleavable C-terminal His6-Tag (Fig 1). The FKBP38 immunophilin domain, representing amino acids 92–207 (FKBP^92-207), and a larger fragment containing both the immunophilin and TPR domain (FKBP^92-380) were also cloned in pDMXV4 (Fig 1). The K307E mutation was generated in the FKBP8^92-380 construct by PCR mutagenesis. Full-length human Hsp90β, human Hsp70, two middle domain human fragments (Hsp90β^295–689 and Hsp90β^295–724) and a yeast C-terminal fragment of Hsp90 (yHsp90^546-709) were expressed from pRSETA as His-tagged fusions. The Hsp90α^464–732 construct was expressed from p2E (A. Oliver, University of Sussex), as a PreScission cleavable His-tagged fusion. […]
(§2) Proteins were dialysed overnight into 20 mM Tris, 300 mM NaCl, 1mM EDTA pH 7.5. The heat of interaction was measured on an ITC200 microcalorimeter (Microcal), with a cell volume of 200 μL, under the same buffer conditions. […] Heats of dilution were determined in a separate experiment by diluting protein into buffer, and the corrected data were fitted using a non-linear least-squares curve-fitting algorithm (Microcal Origin) with three floating variables: stoichiometry, binding constant and change in enthalpy of interaction.

FKBP^92-380 [1] = assay: Isothermal titration calorimetry (ITC), binding to FKBP^92-380 (FKBP38 isoform); details: ITC (ITC200); 20 mM Tris, 300 mM NaCl, 1mM EDTA pH 7.5; 700 to 800 μM FKBP^92-380 injected into 50 μM intact Hsp90β
Source text: as §1, §2

FKBP^1-380 [2] = biological target: T1, FKBP^1-380 (Homo sapiens, UniProt Q14318); assay: Isothermal titration calorimetry (ITC), binding to FKBP^1-380 (FKBP8 isoform lacking the transmembrane domain); details: ITC (ITC200); intact protein or domain fragment; 20 mM Tris, 300 mM NaCl, 1mM EDTA pH 7.5; method: 700 to 800 μM FKBP injected into 50 μM Hsp90; Fig 2 picture: Hsp90β into FKBP^1-380 (panel C)
T1 construct: representing amino acids 1–380 and lacking the C-terminal trans-membrane helix; made in house; host or cells: E. coli BL21 (DE3)
Source text: as §1, §2

FKBP^1-380 [3] = biological target: T1, FKBP^1-380; assay: Gel-filtration chromatography, co-migration with FKBP^1-380 (as in the legend of Fig 2L); type: binding; details: Fig 2L legend: yHsp90^546-709, FKBP^1-380 and their mixture; Superdex 200, pH 7.5
FKBP^92-380 [4] = assay: Analytical gel-filtration chromatography, co-migration with FKBP^92-380; type: binding; details: Superdex 200; equimolar mixture; 50 mM Tris, 300 mM NaCl, 1 mM EDTA, 0.5 mM TCEP, pH 7.5
Method: Equimolar concentrations of the C-terminal fragment of yHsp90^546-709 and FKBP^92-380 were mixed and loaded onto an analytical Superdex 200 column equilibrated in 50 mM Tris, 300 mM NaCl, 1 mM EDTA and 0.5 mM TCEP at pH 7.5.

[5] = system: K307E mutant of FKBP^92-380; assay: Isothermal titration calorimetry (ITC), binding to the K307E carboxylate clamp mutant; details: 20 mM Tris, 300 mM NaCl, 1mM EDTA pH 7.5, 700 to 800 μM mutant injected into 50 μM yeast Hsp90^546-709
Source text: as §1, §2

T1 sequence (Q14318 1-380): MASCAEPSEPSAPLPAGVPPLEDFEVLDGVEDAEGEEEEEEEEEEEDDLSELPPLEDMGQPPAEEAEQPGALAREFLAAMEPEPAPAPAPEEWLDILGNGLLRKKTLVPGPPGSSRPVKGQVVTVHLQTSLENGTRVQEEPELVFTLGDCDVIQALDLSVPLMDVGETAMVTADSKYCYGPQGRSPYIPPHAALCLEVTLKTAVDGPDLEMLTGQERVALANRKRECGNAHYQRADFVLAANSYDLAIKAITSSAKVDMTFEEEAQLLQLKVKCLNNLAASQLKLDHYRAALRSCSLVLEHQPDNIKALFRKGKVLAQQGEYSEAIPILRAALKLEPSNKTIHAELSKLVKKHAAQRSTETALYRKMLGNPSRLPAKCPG

**Q.** For Cpr6: yeast peptidyl-propyl isomerase, which “effect on ATPase activity of yeast Hsp90” value (yeast Hsp90; peptidyl-propyl isomerase Cpr6, previous studies, ref [41]) is on record?
**A.** The value was “weakly activates”.

**Q.** Which “binding (in words)” value (FKBP^92-207) does the source give for “Hsp90β: Full-length human Hsp90β, expressed as His-tagged fusion” here?
**A.** The value was “failed to bind”.

**Q.** And the Kd (FKBP^92-380 [1])?
**A.** Its Kd is 2.6 ± 0.2 µM.

**Q.** And the Kd (FKBP^1-380 [2])?
**A.** The Kd was 2.8 ± 0.1 µM.

**Q.** Which Kd (FKBP^1-380 [2]) does the source give for “Hsp90β^295-724: fragment representing the middle and C-terminal domain of Hsp90β” here?
**A.** The Kd was 6.4 ± 0.5 µM.

**Q.** For “Sti1: TPR domain protein Sti1 (HOP in humans)”, which “effect on ATPase activity of yeast Hsp90” value (yeast Hsp90; TPR domain protein Sti1 (HOP in humans), previous studies, ref [42]) is on record?
**A.** The value was “inhibit; also recorded: strong inhibitor”.

**Q.** With “yHsp90^546-709: yeast C-terminal fragment of Hsp90” as the substance, how does the “co-migration in gel filtration” value (FKBP^1-380 [3]) read?
**A.** The value was “co-migrate as a complex”.

**Q.** What about the “co-migration in gel filtration” value (FKBP^92-380 [4]) of the same substance?
**A.** Its value is “co-migrated”.

**Q.** What about the “binding (in words)” value [5] of the same substance?
**A.** Its value is “failed to bind”.

Reference: PMC5344419, “The structure of FKBP38 in complex with the MEEVD tetratricopeptide binding-motif of Hsp90” (PLoS ONE, 2017)
